From article PMC9569306
One block for each substance: values may come before it.

Legend:
[1] = target: ferredoxin-NADP+ oxidoreductase (FNR) from Chlamydomonas reinhardtii (C. reinhardtii) (UniProt P53991)
[2] = target: [FeFe]-hydrogenase HydA2 from Chlamydomonas reinhardtii (C. reinhardtii)
[3] = target: ferredoxin-NADP+ oxidoreductase (FNR) from Chlamydomonas reinhardtii (C. reinhardtii) (UniProt P53991); remark: listed apart in the source
[4] = target: [FeFe]-hydrogenase HydA1 from Chlamydomonas reinhardtii (C. reinhardtii)
[5] = target: [FeFe]-hydrogenase HydA1 from Chlamydomonas reinhardtii (C. reinhardtii); remark: listed apart in the source

Sequence of UniProt P53991 (P53991 36-354): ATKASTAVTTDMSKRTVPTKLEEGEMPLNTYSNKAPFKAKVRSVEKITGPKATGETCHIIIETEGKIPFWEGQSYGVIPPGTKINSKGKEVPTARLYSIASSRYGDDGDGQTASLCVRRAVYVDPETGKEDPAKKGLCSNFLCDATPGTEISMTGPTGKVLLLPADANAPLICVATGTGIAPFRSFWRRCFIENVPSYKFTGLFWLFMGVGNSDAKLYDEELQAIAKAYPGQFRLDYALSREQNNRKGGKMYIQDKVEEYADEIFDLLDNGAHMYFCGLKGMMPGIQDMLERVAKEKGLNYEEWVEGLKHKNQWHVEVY

Substance: ferredoxin Fdx2 from Chlamydomonas reinhardtii (natural protein)
H2 production rate of HydA2, 50 µM ferredoxin reduced with 10 mM sodium dithionite (µmol H2 × min^−1 × mg^−1) [2]: 12.6
NADPH-dependent cytochrome c reduction, 40 nM FNR, 5 µM ferredoxin, initial reaction speed (µM cyt c × min^−1) [3]: 121
H2 production rate of HydA1, 50 µM ferredoxin reduced with 10 mM sodium dithionite, against PetF (% of the rate with PetF) [4]: 40

Substance: ferredoxin Fdx8 from Chlamydomonas reinhardtii (natural protein)
light-dependent H2 production of HydA1 (50 nM, 10 µM ferredoxin) left in the presence of the competitor FNR (50 nM), against the rate without FNR [5]: 52%

Substance: photosynthetic ferredoxin PetF from Chlamydomonas reinhardtii (from UniProt P07839 33-126) (natural protein)
H2 production rate of HydA2, 50 µM ferredoxin reduced with 10 mM sodium dithionite (µmol H2 × min^−1 × mg^−1) [2]: 63.9
NADPH-dependent cytochrome c reduction, 40 nM FNR, 5 µM ferredoxin, initial reaction speed (µM cyt c × min^−1) [3]: 84.2
H2 production rate of HydA1, 50 µM ferredoxin reduced with 10 mM sodium dithionite (µmol H2 × min^−1 × mg^−1) [4]: 225

The next lines start with the values.

NADPH-dependent cytochrome c reduction, 40 nM FNR, 5 µM ferredoxin (µM cyt c × min^−1) [1]: 34.4
Substance: ferredoxin Fdx11 from Chlamydomonas reinhardtii (natural protein)

H2 production rate of HydA1, 50 µM ferredoxin reduced with 10 mM sodium dithionite, against PetF (% of the rate with PetF) [4]: 14
light-dependent H2 production of HydA1 (50 nM, 10 µM ferredoxin) left in the presence of the competitor FNR (50 nM), against the rate without FNR [5]: 59%
Substance: ferredoxin Fdx7 from Chlamydomonas reinhardtii (natural protein)

H2 production rate of HydA2, 50 µM ferredoxin reduced with 10 mM sodium dithionite, against PetF (% of the rate with PetF) [2]: 10
light-dependent H2 production of HydA1 (50 nM, 10 µM ferredoxin) left in the presence of the competitor FNR (50 nM), against the rate without FNR [5]: 29%
Substance: ferredoxin Fdx3 from Chlamydomonas reinhardtii (natural protein)

NADPH-dependent cytochrome c reduction, 40 nM FNR, 5 µM ferredoxin (µM cyt c × min^−1) [1]: 23.3
light-dependent H2 production of HydA1 (50 nM, 10 µM ferredoxin) left in the presence of the competitor FNR (50 nM), against the rate without FNR [5]: 43%
Substance: ferredoxin Fdx10 from Chlamydomonas reinhardtii (natural protein)
